Data as given in paper PMC2213439.

Experiments:
Assay in all cases: cell adhesion assay
[1] = target: E-cadherin-Fc D44A (human)
[2] = target: E-cadherin-Fc K25A (human)
[3] = target: E-cadherin-Fc K33A (human)
[4] = target: E-cadherin-Fc K30A (human)
[5] = target: E-cadherin-Fc S83A (human) (UniProt P12830)
[6] = target: E-cadherin-Fc K28A (human)
[7] = target: E-cadherin-Fc N86A (human)
[8] = target: E-cadherin-Fc E89A (human)
[9] = target: E-cadherin-Fc N27A (human)
[10] = target: E-cadherin-Fc E31A (human)
[11] = target: E-cadherin-Fc E31D (human)
[12] = target: E-cadherin-Fc E56A (human)
[13] = target: Purified human IgG1 (human)
[14] = target: E-cadherin-Fc KEG30-32RDT (human) (UniProt P12830)

With “E-cadherin on MCF-7 human breast epithelial cells (from UniProt P12830 155-882) (natural protein)” the adhesion as percent of wild type (% of wild-type) [1] was 94, the adhesion as percent of wild type (% of wild-type) [2] was 76 and the adhesion as percent of wild type (% of wild-type) [3] was 91. The adhesion as percent of wild type (% of wild-type) [4] was 99, the adhesion as percent of wild type (% of wild-type) [5] was 105 and the adhesion as percent of wild type (% of wild-type) [6] was 94. It also gave an adhesion as percent of wild type (% of wild-type) [7] of 93, an adhesion as percent of wild type (% of wild-type) [8] of 2 and an adhesion as percent of wild type (% of wild-type) [9] of 62. The percent of cells bound [10] was 41%, the percent of cells bound [11] was 41% and the adhesion as percent of wild type (% of wild-type) [12] was 90.
Substance “Integrin αEβ7 on K562 transfectants (K562-αEβ7) (from UniProt P38570 19-1179; P26010 20-798) (complex)” has an adhesion as percent of wild type (% of adhesion to wild-type) [1] of 105, an adhesion as percent of wild type (% of adhesion to wild-type) [2] of 87 and an adhesion as percent of wild type (% of adhesion to wild-type) [3] of 104. For the same substance, the adhesion as percent of wild type (% of adhesion to wild-type) [4] was 53, the adhesion as percent of wild type (% of adhesion to wild-type) [5] was 80 and the adhesion as percent of wild type (% of adhesion to wild-type) [6] was 79. For the same substance, the percent of cells bound [13] was < 1%, the adhesion as percent of wild type (% of adhesion to wild-type) [7] was 86 and the adhesion as percent of wild type (% of adhesion to wild-type) [9] was 57. For the same substance, the adhesion as percent of wild type (% of adhesion to wild-type) [12] was 102.
With “Integrin αEβ7 on human IEL-496 T cells (from UniProt P38570 19-1179; P26010 20-798) (complex)” the adhesion as percent of wild type (% of wild-type) [1] was > 82, the percent of cells bound [1] was 59% and the adhesion as percent of wild type (% of wild-type) [2] was > 82. For the same substance, the percent of cells bound [2] was 69%, the adhesion as percent of wild type (% of wild-type) [14] was < 2 and the adhesion as percent of wild type (% of wild-type) [3] was > 82. For the same substance, the percent of cells bound [3] was 60%, the adhesion as percent of wild type (% of wild-type) [4] was > 82 and the percent of cells bound [4] was 58%. For the same substance, the adhesion as percent of wild type (% of wild-type) [5] was > 82, the percent of cells bound [5] was 68% and the adhesion as percent of wild type (% of wild-type) [6] was > 82. For the same substance, the percent of cells bound [6] was 58%, the adhesion as percent of wild type (% of wild-type) [7] was > 82 and the percent of cells bound [7] was 57%. For the same substance, the adhesion as percent of wild type (% of wild-type) [8] was 20, the percent of cells bound [8] was 12% and the adhesion as percent of wild type (% of wild-type) [9] was > 82. The percent of cells bound [9] was 58%, the adhesion as percent of wild type (% of wild-type) [10] was < 2 and the adhesion as percent of wild type (% of wild-type) [11] was < 2. For the same substance, the adhesion as percent of wild type (% of wild-type) [12] was > 82 and the percent of cells bound [12] was 60%.
